The target of assay [1] is ITGA2 protein on the surface of human tumor cells (human) (UniProt P17301). Put plainly: cell-based or functional assay.
For assay [2], the system named is Human epidermal cancer cells A431. The assay is described as follows: ADC cancer cell killing assay (Cell-Titer-Glo 2.0). It is filed as cell-based. Conditions: 5 days at 37°C, 3-fold gradient, 11 points. Here is the method:
Human epidermal cancer cells A431 available from Procell Life Science&Technology Co.,Ltd. (Wuhan) were seeded into a 96-well plate at 2500 cells/well. It was then incubated in a 5% CO2 incubator overnight at 37°C. Half of the medium was removed from the cell plate on the next day. A 2x hIgG1-vcMMAE (negative control ADC, provided by ChemPartner), a control antibody and the ADC prepared as the above were prepared with a complete culture medium, and then diluted at a 3-fold gradient with 11 specific concentration points in total. Serial dilutions of the above molecules were added to the appropriate wells, and it was then incubated in a 5% CO2 incubator for 5 days at 37°C. After the incubation, 100 uL of Cell-Titer-Glo 2.0 reagent was added to the 96-well plate. It was then well mixed on a plate shaker for 2 minutes, and finally equilibrated at room temperature for 10 minutes. Readings were taken using a microplate reader. Finally, IC50 was used to compare the biological activity of the ADC against each cell line.

In assay [3] the target is T1, ITGA2 protein on the surface of human tumor cells (human, UniProt P17301 30-1181).
T1 sequence (looked up): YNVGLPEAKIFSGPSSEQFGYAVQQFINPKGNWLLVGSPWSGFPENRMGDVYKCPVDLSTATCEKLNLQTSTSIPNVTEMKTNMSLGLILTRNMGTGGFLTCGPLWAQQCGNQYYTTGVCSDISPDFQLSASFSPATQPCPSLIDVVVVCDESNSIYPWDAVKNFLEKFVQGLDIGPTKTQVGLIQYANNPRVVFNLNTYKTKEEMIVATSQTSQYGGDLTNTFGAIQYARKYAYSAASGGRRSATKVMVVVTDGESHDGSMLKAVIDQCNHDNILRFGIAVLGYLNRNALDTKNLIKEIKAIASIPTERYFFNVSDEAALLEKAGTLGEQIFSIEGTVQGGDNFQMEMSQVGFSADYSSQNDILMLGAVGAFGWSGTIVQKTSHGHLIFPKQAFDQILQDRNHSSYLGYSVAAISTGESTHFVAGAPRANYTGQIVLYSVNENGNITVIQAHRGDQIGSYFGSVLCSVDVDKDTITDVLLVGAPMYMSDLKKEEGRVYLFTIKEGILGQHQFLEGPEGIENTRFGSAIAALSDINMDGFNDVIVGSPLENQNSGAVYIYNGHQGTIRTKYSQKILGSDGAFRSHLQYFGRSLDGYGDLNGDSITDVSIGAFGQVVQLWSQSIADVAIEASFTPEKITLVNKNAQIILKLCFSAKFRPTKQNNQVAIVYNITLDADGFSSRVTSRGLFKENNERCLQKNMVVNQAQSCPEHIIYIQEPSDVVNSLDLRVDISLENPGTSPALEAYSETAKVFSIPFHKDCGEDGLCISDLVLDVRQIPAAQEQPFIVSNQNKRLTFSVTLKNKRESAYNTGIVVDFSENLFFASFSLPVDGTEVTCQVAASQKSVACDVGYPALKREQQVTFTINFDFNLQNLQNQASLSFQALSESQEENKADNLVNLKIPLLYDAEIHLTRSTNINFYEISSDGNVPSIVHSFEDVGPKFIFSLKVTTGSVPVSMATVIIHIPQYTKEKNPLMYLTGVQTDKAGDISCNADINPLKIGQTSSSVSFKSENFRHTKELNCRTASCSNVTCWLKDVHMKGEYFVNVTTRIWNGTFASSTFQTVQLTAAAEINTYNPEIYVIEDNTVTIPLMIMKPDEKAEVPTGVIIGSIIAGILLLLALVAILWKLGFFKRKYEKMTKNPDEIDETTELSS
Put plainly: cell-based or functional assay.

Substitutions are numbered along the chain they refer to.

As a reminder, the IC50 is the midpoint of a concentration-inhibition curve.

Vatelizumab-vc-MMAE (antibody): in assay [1], the A431 cell killing IC50 turned out to be 0.054 nM.

B1: Vatelizumab-vc-MMAE: Antibody-drug conjugate of the positive control antibody Vatelizumab with vc-MMAE linker-payload (conjugate, chains of the INN, looked up)
VH: QVQLQESGPGLVKPSETLSLTCTVSGFSLTNYGIHWIRQPPGKGLEWLGVIWARGFTNYNSALMSRLTISKDNSKNQVSLKLSSVTAADTAVYYCARANDGVYYAMDYWGQGTLVTVSS
VL: DFVMTQSPAFLSVTPGEKVTITCSAQSSVNYIHWYQQKPDQAPKKLIYDTSKLASGVPSRFSGSGSGTDYTFTISSLEAEDAATYYCQQWTTNPLTFGQGTKVEIK
modifications: vc-MMAE linker-payload
Regarding B1, the IC50 in assay [2] is 0.054 nM; in assay [2] (listed as Vatelizumab-ve-MMAE) it was less than 0.1 nM.

B2: FS002-A153-H4L2-vcMMAE (antibody, human IgG1, kappa, V domains shown)
VH: QVQLVQSGAEVKKPGASVKVSCKASGYTFTDYEMHWVRQAPGQGLEWMGTIDPETGGTTYAQKFQGRVTLTADTSISTAYMELSRLRSDDTAVYYCSRSGYYVSSYESYAMDYWGQGTTVTVSS
VL: DIVMTQSPDSLAVSLGERVTMNCKSSQSLLNSGNQKNYLTWYQQKPGQPPKLLIYGASTRESGVPDRFSGSGSGTDFTLTISSLQAEDVAVYYCQNDYSYPFTFGGGTKLEIKR
modifications: vc-MMAE, attachment residues not stated; vc-MMAE (mc-vc-PAB-MMAE) conjugated after TCEP reduction, DAR 3.8 per antibody; attachment residues not stated
With B2, the “A431 cell killing IC50” value in assay [3] is 0.057 nM.

B3: FS002-A153-H5L1-vcMMAE (antibody, human IgG1, kappa, V domains shown)
VH: B2 VH with L70M, S97A
VL: B2 VL with N22S, S69T
modifications: vc-MMAE, attachment residues not stated; vc-MMAE (mc-vc-PAB-MMAE) conjugated after TCEP reduction, DAR 3.7 per antibody; attachment residues not stated
Consider B3, for which the “A431 cell killing IC50” value in assay [3] came out at 0.082 nM.

B4: FS002-A153-H5L2-vcMMAE (antibody, human IgG1, kappa, V domains shown)
VH: B2 VH with L70M, S97A
VL: B2 VL
modifications: vc-MMAE, attachment residues not stated; vc-MMAE (mc-vc-PAB-MMAE) conjugated after TCEP reduction, DAR 3.5 per antibody; attachment residues not stated
As to B4, the “A431 cell killing IC50” value in assay [3] amounted to 0.028 nM.

Values taken from EP4722245A1, “ANTIBODY TARGETING ITGA2, ANTIBODY DRUG CONJUGATE THEREOF, AND USE” (Foreseen Technology (Beijing) Co., Ltd., priority 2023, dated 2024).
